Experimental data as given in US20200239535A1.

Molecular target: cell surface of 293 AAV cells (the filing names αvβ3 and αvβ5 integrins as the receptors of RGD4C)
Experiment: 200000 TU/cell incubated 1 h on ice with 293AAV cells; unbound particles recovered from the medium, titrated on TG1 E. coli and counted as colonies; value relative to its control

Substance: M13.PAAV vector (non-targeted phagemid/AAV particle lacking RGD4C) (from UniProt P69168 19-424)
- binding efficiency (percentage of vectors bound to the cell surface): 7.1%

Substance: RGD.PAAV vector (RGD4C-targeted phagemid/AAV particle displaying the RGD4C peptide on the pIII minor coat protein)
- binding efficiency (percentage of vectors bound to the cell surface): 58.2%
